Patent US8980609B2, “Uniformly conjugated serine hydrolases” (Israel Institute for Biological Research, priority 2005, dated 2015)

Columns and labels:
[1] = mice, earlier reports; cited from earlier work
[2] = tested on: anti-AChE antibody; assay: Immunogenicity in rhesus macaques: anti-AChE antibody formation by ELISA after repeated monthly administration; type: in vivo; details: monthly intervals, no adjuvant
Description: Anti-AChE antibody levels elicited by PEGylated rHuAChE, were compared to those induced by nonmodified rHuAChE or FBS-AChE, following their administration to rhesus macaques. To this end, non-modified or PEG-modified AChE or the heterologous FBS-AChE (no adjuvant included) were repeatedly administered to monkeys at monthly intervals, and anti-AChE antibody formation was monitored by ELISA (FIG. 8).

Molecule	MRT (mean residual time) [1]	development of anti-AChE antibody after repeated administrations [2]
horse BChE: serum derived horse butyrylcholinesterase [reference compound]	approximately 1,400 minutes	–
serum derived human BChE: serum derived human butyrylcholinesterase (protein, UniProt P06276 29-602, looked up) Cholinesterase: EDDIIIATKNGKVRGMNLTVFGGTVTAFLGIPYAQPPLGRLRFKKPQSLTKWSDIWNATKYANSCCQNIDQSFPGFHGSEMWNPNTDLSEDCLYLNVWIPAPKPKNATVLIWIYGGGFQTGTSSLHVYDGKFLARVERVIVVSMNYRVGALGFLALPGNPEAPGNMGLFDQQLALQWVQKNIAAFGGNPKSVTLFGESAGAASVSLHLLSPGSHSLFTRAILQSGSFNAPWAVTSLYEARNRTLNLAKLTGCSRENETEIIKCLRNKDPQEILLNEAFVVPYGTPLSVNFGPTVDGDFLTDMPDILLELGQFKKTQILVGVNKDEGTAFLVYGAPGFSKDNNSIITRKEFQEGLKIFFPGVSEFGKESILFHYTDWVDDQRPENYREALGDVVGDYNFICPALEFTKKFSEWGNNAFFYYFEHRSSKLPWPEWMGVMHGYEIEFVFGLPLERRDNYTKAEEILSRSIVKRWANFAKYGNPNETQNNSTSWPVFKSTEQKYLTLNTESTRIMTKLRAQQCRFWTSFFPKVLEMTGNIDEAEWEWKAGFHRWNNYMMDWKNQFNDYTSKKESCVGL	approximately 1,400 minutes	–
fetal bovine AChE: serum derived fetal bovine AChE; heterologous FBS-AChE in the monkey study (protein, UniProt P23795 31-613, looked up) Acetylcholinesterase: EGPEDPELLVMVRGGRLRGLRLMAPRGPVSAFLGIPFAEPPVGPRRFLPPEPKRPWPGVLNATAFQSVCYQYVDTLYPGFEGTEMWNPNRELSEDCLYLNVWTPYPRPSSPTPVLVWIYGGGFYSGASSLDVYDGRFLTQAEGTVLVSMNYRVGAFGFLALPGSREAPGNVGLLDQRLALQWVQENVAAFGGDPTSVTLFGESAGAASVGMHLLSPPSRGLFHRAVLQSGAPNGPWATVGVGEARRRATLLARLVGCPPGGAGGNDTELVACLRARPAQDLVDHEWRVLPQESVFRFSFVPVVDGDFLSDTPEALINAGDFHGLQVLVGVVKDEGSYFLVYGAPGFSKDNESLISRAQFLAGVRVGVPQASDLAAEAVVLHYTDWLHPEDPARLREALSDVVGDHNVVCPVAQLAGRLAAQGARVYAYIFEHRASTLSWPLWMGVPHGYEIEFIFGLPLEPSLNYTIEERTFAQRLMRYWANFARTGDPNDPRDPKAPQWPPYTAGAQQYVSLNLRPLEVRRGLRAQACAFWNRFLPKLLSATDTLDEAERQWKAEFHRWSSYMVHWKNQFDHYSKQDRCSDL	approximately 1,400 minutes	following the third administration
